In patent US20240092867A1 (UNIVERSITY OF CHICAGO, published 2024):

Assays:
[1] = molecular target: T1, vascular endothelial growth factor (VEGF)-A121 (human, UniProt P15692-9 27-147); test: ELISA, HBD peptide coated
T1 construct: mature; Purchased in mature form, not glycosylated
T1 sequence (looked up): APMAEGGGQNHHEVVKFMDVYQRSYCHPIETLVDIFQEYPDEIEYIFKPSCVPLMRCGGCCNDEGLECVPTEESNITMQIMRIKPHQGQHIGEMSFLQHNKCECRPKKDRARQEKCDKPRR
Method: (§1) ELISA tests were performed as described above. […] After blocking with 2% BSA solution containing PBS-T, 1 μg/mL of the recombinant human proteins VEGF-A121, VEGF-A165, PlGF-1, PlGF-2, PDGF-BB, FGF-2, CXCL-12α and CXCL-12γ were added. 1 μg/mL of BSA served as non-binding protein control. Bound GF or chemokine was detected with biotinylated antibodies for human VEGF-A, PlGF, PDGF-BB, FGF-2, or CXCL-12 (R & D Systems). The antibodies were detected by streptavidin-HRP (R & D Systems). Color development and the absorbance measurement were done as described above.

[2] = molecular target: T2, placental growth factor (PlGF)-1 (human, UniProt P49763-2 19-149); test: ELISA, HBD peptide coated
T2 construct: mature; Purchased in mature form
T2 sequence (looked up): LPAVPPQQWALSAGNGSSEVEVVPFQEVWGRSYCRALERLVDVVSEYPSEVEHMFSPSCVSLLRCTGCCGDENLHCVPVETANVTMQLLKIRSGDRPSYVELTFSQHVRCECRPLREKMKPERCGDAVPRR
Method: as §1

human plasma-derived vWF = molecular target: T3, human plasma-derived vWF (human, UniProt P04275 764-2813); test: ELISA, vWF coated 50 nM, VEGF-A 1 µg/mL
T3 construct: mature; also called plasma-derived purified vWF; von Willebrand factor
Method: (§2) ELISA was performed as previously reported1. […] After blocking with 2% BSA solution containing PBS-T, 1 μg/mL of recombinant human VEGF-A121 (PeproTech), recombinant human VEGF-A145 (R & D Systems), or recombinant human VEGF-A165 (PeproTech) was added. Bound VEGF-A was detected with 1 μg/mL of mouse anti-human VEGF-A antibody (clone: 26503, R & D systems). After 60 min of incubation, horseradish peroxidase (HRP) conjugated goat anti-mouse antibody (1:2000 dilution, Dako) was added and incubated for another 60 min. Color development and the absorbance measurement were done as described above.

[3] = molecular target: T4, recombinant human vWF A2 domain (human, UniProt P04275 1498-1665); test: ELISA, domain coated 50 nM
T4 construct: domain: A2
Method: as §2

[4] = molecular target: T5, recombinant human vWF A3 domain (human, UniProt P04275 1683-1874); test: ELISA, domain coated 50 nM
T5 construct: domain: A3
Method: as §2

[5] = molecular target: T6, recombinant human vWF A1 domain (human, UniProt P04275 1261-1468, limits assumed); test: ELISA, domain coated 50 nM, VEGF-A 1 µg/mL
T6 construct: domain: A1; also called vWF A1 recombinant protein; recombinant A1 domain
Method: as §2

bovine type I collagen [6] = molecular target: T7, bovine type I collagen (bovine, UniProt P02453 178-1191; P02465 89-1102); test: ELISA on coated bovine type I collagen (10 µg/mL), FabCol titrated 0.01-30 nM, HRP-anti-human Fab [panel C]
T7 construct: PureCol, Advanced BioMatrix; coated on the plate; also called collagen I; PureCol
T7 sequence (P02453 178-1191, chain 1 of 2): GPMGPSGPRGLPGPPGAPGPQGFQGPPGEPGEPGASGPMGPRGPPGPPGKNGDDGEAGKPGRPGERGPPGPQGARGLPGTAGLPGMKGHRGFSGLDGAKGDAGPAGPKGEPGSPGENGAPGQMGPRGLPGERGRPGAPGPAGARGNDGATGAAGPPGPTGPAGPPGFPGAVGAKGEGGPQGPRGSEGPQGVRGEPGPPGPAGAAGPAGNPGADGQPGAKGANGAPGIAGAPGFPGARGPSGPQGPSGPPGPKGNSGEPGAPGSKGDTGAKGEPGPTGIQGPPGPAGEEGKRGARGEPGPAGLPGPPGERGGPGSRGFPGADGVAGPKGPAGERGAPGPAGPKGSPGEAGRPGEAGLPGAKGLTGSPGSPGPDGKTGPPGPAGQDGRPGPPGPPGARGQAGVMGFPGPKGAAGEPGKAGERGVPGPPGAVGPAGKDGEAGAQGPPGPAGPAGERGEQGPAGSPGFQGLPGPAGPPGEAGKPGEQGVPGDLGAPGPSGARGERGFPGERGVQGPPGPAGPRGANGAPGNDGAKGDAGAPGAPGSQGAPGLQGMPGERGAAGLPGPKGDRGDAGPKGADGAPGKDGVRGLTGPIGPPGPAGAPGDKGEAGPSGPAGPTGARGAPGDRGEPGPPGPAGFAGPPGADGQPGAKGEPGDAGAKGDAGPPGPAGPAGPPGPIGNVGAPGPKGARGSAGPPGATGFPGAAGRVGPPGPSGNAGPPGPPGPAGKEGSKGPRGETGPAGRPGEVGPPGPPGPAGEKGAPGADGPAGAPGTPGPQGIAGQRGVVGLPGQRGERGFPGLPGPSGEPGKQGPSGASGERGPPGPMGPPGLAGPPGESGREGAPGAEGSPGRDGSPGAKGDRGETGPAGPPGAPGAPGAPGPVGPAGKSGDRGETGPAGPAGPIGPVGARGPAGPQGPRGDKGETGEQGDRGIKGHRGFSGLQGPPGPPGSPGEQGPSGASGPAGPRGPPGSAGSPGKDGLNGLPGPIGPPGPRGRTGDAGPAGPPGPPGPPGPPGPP
T7 sequence (P02465 89-1102, chain 2 of 2): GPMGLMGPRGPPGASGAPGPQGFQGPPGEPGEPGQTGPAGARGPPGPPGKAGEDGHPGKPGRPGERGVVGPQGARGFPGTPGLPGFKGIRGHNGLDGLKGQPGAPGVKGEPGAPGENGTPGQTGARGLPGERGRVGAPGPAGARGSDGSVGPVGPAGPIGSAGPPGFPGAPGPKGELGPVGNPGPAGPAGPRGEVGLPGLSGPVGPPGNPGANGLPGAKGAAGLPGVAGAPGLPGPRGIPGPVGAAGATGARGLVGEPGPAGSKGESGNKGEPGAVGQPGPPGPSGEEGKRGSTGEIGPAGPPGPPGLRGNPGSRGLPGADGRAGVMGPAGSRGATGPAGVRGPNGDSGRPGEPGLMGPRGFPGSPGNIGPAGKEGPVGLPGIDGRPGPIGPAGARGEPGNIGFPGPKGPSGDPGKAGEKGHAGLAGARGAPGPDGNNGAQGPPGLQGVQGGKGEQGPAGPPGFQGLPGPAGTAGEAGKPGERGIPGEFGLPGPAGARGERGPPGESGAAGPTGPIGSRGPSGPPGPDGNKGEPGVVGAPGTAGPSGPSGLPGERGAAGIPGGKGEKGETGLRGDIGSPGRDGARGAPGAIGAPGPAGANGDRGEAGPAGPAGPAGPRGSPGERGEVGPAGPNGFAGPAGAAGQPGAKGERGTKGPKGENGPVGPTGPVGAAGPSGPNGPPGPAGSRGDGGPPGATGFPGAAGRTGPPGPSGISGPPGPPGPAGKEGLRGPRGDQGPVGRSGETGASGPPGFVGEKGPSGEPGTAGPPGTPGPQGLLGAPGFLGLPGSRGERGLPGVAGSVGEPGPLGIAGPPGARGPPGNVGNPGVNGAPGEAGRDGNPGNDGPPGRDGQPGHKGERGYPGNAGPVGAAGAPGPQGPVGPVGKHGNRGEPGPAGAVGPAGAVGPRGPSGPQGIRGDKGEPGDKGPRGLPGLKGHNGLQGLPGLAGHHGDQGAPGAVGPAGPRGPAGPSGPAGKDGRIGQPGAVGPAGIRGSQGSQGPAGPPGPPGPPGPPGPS
Method: (§3) ELISA plates (NUNC MaxiSorp, ThermoFisher Scientific) were coated overnight with 10 μg/mL of bovine type I collagen (PureCol, Advanced BioMatrix, San Diego CA, USA) at room temperature. The plate was further blocked using 2% bovine serum albumine (BSA) for 2 h at room temperature. […] The plate was washed thrice in PBST, and an horseradish peroxidase-conjugated anti-human Fab antibody (Jackson ImmunoResearch,) was used to detect bound FabCol variants. […] Absorbance at 450 nm was read using […], and corrected using the absorbance at 570 nm. Curve fits and dissociation constant KD were computed using Prism (GraphPad Software Inc., USA).

bovine type I collagen [7] = molecular target: T7, bovine type I collagen; test: ELISA on coated bovine type I collagen (10 µg/mL), FabCol titrated 0.01-30 nM, HRP-anti-human Fab; table headed 'Estimated KD (nM)' [panel C]
Method: as §3

[8] = molecular target: T8, platelet-derived growth factor (PDGF)-BB (human, UniProt P01127 82-190); test: ELISA; growth factors coated at 100 nM, FabCol variants at 100 nM in solution, HRP-anti-human Fab [panel F]
T8 construct: mature; Purchased in mature form
T8 sequence (P01127 82-190): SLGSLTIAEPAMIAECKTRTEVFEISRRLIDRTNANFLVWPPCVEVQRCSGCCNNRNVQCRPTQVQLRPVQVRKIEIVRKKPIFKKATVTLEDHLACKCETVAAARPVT

[9] = molecular target: T9, vascular endothelial growth factor (VEGF)-A165 (human, UniProt P15692-4 27-191); test: as above
T9 construct: mature; Purchased in mature form, not glycosylated

mVEGF-C = molecular target: T10, mVEGF-C (mouse, UniProt P97953); test: as above
T10 construct: also called mouse wild-type VEGF-C
T10 sequence (growth factor chain, looked up): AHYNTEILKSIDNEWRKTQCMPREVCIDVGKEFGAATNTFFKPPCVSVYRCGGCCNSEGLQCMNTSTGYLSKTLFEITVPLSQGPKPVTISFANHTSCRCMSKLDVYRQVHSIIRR

[10] = molecular target: T2, placental growth factor (PlGF)-1; test: as above
[11] = molecular target: T11, placental growth factor (PlGF)-2 (human, UniProt P49763-3 19-170); test: as above
T11 construct: mature; Purchased in mature form
T11 sequence (looked up): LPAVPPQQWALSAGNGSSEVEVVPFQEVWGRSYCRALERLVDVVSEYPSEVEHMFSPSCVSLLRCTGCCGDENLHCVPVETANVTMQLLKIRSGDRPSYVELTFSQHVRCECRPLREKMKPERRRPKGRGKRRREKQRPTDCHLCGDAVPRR

recombinant human BMP-2 = molecular target: T12, recombinant human BMP-2 (human, UniProt P12643 283-396); test: ELISA, rhBMP-2 coated 50 nM
T12 construct: also called rhBMP-2
T12 sequence (P12643 283-396 limits assumed): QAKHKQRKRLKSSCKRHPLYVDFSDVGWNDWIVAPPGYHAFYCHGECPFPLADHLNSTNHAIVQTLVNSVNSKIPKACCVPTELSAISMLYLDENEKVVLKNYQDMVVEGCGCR
Method: ELISA plates (NUNC MaxiSorp) were coated with 50 nM of recombinant human BMP-2 (CHO produced, R&D Systems, Minneapolis MN, USA) overnight at room temperature.

bovine type I collagen [12] = molecular target: T7, bovine type I collagen; test: ELISA on coated bovine type I collagen (10 µg/mL), FabCol titrated, HRP-anti-human Fab [panel C]
Method: as §3

bovine type I collagen [13] = molecular target: T7, bovine type I collagen; test: ELISA on coated bovine type I collagen (10 µg/mL), FabCol titrated, HRP-anti-human Fab; table headed 'Estimated KD (nM)' [panel C]
Method: as §3

[14] = molecular target: T13, recombinant human syndecan-1 (human, UniProt P18827 23-254, limits assumed); test: ELISA, peptide coated, anti-His detection
T13 construct: Histidine tag of unstated position and length
T13 sequence (looked up): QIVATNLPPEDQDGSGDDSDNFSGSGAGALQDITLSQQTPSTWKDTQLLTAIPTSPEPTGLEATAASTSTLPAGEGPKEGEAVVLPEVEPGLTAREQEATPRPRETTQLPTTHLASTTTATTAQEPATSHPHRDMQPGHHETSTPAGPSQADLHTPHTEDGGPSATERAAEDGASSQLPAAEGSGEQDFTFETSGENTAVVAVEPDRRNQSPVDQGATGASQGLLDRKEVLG
Method: (§4) ELISA tests were performed as described above. In brief, ELISA plates were coated with 1 μg/mL laminin peptide (sequences are described in Table 1, chemically synthesized by Genscript) in PBS for 2 hrs at 37° C. 1 μg/mL of BSA served as non-binding protein control. After blocking with 2% BSA PBS-T solution, 1 μg/mL of the recombinant human syndecan-1, syndecan-2, syndecan-3, syndecan-4 (all syndecan proteins are histidine-tagged; SinoBiological) were added. Bound GF was detected with anti-histidine tag antibody (1:1000 dilution, BioLegend).

[15] = molecular target: T14, recombinant human syndecan-4 (human, UniProt P31431 19-145, limits assumed); test: ELISA, peptide coated, anti-His detection
T14 construct: Histidine tag of unstated position and length
T14 sequence (looked up): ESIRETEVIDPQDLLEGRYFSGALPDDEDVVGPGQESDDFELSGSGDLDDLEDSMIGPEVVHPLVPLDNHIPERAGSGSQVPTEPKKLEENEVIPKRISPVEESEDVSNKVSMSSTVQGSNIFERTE
Method: as §4

[16] = molecular target: T15, recombinant human syndecan-2 (human, UniProt P34741 19-144, limits assumed); test: ELISA, peptide coated, anti-His detection
T15 construct: Histidine tag of unstated position and length
T15 sequence (P34741 19-144 limits assumed): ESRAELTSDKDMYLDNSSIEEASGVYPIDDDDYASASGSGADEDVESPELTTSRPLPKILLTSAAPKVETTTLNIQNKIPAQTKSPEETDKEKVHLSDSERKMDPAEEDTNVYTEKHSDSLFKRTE
Method: as §4

[17] = molecular target: T16, recombinant human syndecan-3 (human, UniProt O75056 48-387, limits assumed); test: ELISA, peptide coated, anti-His detection
T16 construct: Histidine tag of unstated position and length
T16 sequence (O75056 48-387 limits assumed): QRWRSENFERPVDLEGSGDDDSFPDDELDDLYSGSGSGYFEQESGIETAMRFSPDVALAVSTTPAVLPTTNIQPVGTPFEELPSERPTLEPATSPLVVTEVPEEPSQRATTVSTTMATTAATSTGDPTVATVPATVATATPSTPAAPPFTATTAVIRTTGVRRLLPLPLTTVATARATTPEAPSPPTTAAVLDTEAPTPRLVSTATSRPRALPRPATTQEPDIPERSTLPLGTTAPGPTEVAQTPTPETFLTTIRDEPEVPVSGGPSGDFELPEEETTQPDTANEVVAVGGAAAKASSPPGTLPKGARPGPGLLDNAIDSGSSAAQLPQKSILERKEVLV
Method: as §4

[18] = molecular target: T8, platelet-derived growth factor (PDGF)-BB; test: ELISA, peptide coated, GF 1 µg/mL
Procedure, shortened: (§5)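 Wells coated with 10 μg/mL laminin α3/α4/α5 LG-domain peptides, BSA-coated wells as non-binding control, blocked with 2% BSA PBS-T. Recombinant human GFs added at 1 μg/mL; bound GF detected with GF-specific biotinylated antibody plus streptavidin-HRP (n=4, mean±SEM).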

[19] = molecular target: T17, fibroblast growth factor (FGF)-2 (human, UniProt P09038 143-288); test: ELISA, peptide coated, GF 1 µg/mL
T17 construct: mature; Purchased in mature form
T17 sequence (P09038 143-288): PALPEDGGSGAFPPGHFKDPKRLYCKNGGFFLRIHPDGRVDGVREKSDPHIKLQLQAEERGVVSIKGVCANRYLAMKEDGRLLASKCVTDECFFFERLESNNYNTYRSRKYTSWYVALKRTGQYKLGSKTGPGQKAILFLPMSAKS
Procedure, shortened: as §5

[20] = molecular target: T9, vascular endothelial growth factor …; test: ELISA, peptide coated, GF 1 µg/mL
Procedure, shortened: as §5

[21] = molecular target: T11, placental growth factor (PlGF)-2; test: ELISA, peptide coated, GF 1 µg/mL
Procedure, shortened: as §5

[22] = molecular target: T1, vascular endothelial growth factor …; test: ELISA, peptide coated
Procedure, shortened: as §5

[23] = molecular target: T2, placental growth factor (PlGF)-1; test: ELISA, peptide coated
Procedure, shortened: as §5

B1: vWF A1 HBD peptide (23 residues) (peptide)
peptide: YIGLKDRKRPSELRRIASQVKYA
notes: Chemically synthesized (Genscript); also called vWF HBD; vWF A1 peptide
[1]
  binding result: no binding (tested: 1 µg/mL)
[2]
  binding result: no binding (tested: 1 µg/mL)

B2: recombinant human VEGF-A145 (ligand, UniProt P15692-6 27-171, looked up)
chain: APMAEGGGQNHHEVVKFMDVYQRSYCHPIETLVDIFQEYPDEIEYIFKPSCVPLMRCGGCCNDEGLECVPTEESNITMQIMRIKPHQGQHIGEMSFLQHNKCECRPKKDRARQEKKSVRGKGKGQKRKRKKSRYKSWSVCDKPRR
Human plasma-derived vWF
  binding result: binds
[3]
  binding result: no binding (tested: 1 µg/mL)
[4]
  binding result: no binding (tested: 1 µg/mL)
[5]
  binding result: binds

B3: FabCol (Fab)
light: EIVLTQSPGTLSLSPGERATLSCRASQSVSSSYLAWYQQKPGQAPRLLIYGASSRATGIPDRFSGSGSGTDFTLTISRLEPEDFAVYYCQQAIGFPQTFGQGTKVEIKRTVAAPSVFIFPPSDEQLKSGTASVVCLLNNFYPREAKVQWKVDNALQSGNSQESVTEQDSKDSTYSLSSTLTLSKADYEKHKVYACEVTHQGLSSPVTKSFNRGEC
heavy: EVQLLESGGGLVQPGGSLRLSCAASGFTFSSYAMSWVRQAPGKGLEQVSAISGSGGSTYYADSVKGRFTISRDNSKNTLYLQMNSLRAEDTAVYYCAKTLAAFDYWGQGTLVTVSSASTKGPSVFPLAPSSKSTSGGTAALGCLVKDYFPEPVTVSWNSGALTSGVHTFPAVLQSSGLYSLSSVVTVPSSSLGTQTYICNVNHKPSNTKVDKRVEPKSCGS
notes: Human Fab with human Fab constant regions; also called non-conjugated FabCol; anti-collagen I Fab (clone C11)
Bovine type I collagen [6]
  EC50 (read off the curve): ~1 nM
Bovine type I collagen [7]
  Kd: 0.9 nM
[8]
  binding result: no binding (tested: 100 nM (single concentration))
[9]
  binding result: no binding (tested: 100 nM (single concentration))
mVEGF-C
  binding result: no binding (tested: 100 nM (single concentration))
[10]
  binding result: no binding (tested: 100 nM (single concentration))
[11]
  binding result: no binding (tested: 100 nM (single concentration))
Recombinant human BMP-2
  binding result: no binding (tested: 50 nM)
Bovine type I collagen [12]
  EC50 (read off the curve): ~0.2 nM
Bovine type I collagen [13]
  Kd: 0.3 nM

## TLPDVGLELEVR (Chemically synthesized (Genscript)) [laminin α5 3539-3550 peptide (LG5)]
[14]
  binding result: no binding (tested: 1 µg/mL)
[15]
  binding result: no binding (tested: 1 µg/mL)
[16]
  binding result: no binding (tested: 1 µg/mL)
[17]
  binding result: no binding (tested: 1 µg/mL)
[18]
  binding result: binds
[19]
  binding result: binds
[20]
  binding result: binds
[21]
  binding result: binds
[22]
  binding result: no binding (tested: 1 µg/mL)
[23]
  binding result: no binding (tested: 1 µg/mL)
